Results published in patent US12618050B2, “Engineered polypeptides that exhibit increased catalytic efficiency for unnatural cofactors and uses thereof” (The Regents of the University of California, priority 2018, dated 2026).
“Also recorded” adds a separate entry of the source.

Experiment: XenA activity with different cofactors
Assay type: biochemical
Details: ketoisophorone as substrate
Experimental: Enzyme assay conditions: The enzymatic buffer contained 200 mM phosphate buffer (pH 7.5), 5 mM ketoisophorone, and 0.2 mM NADPH, NADH, or NMNH, and appropriate amount of purified XenA protein. The initial reaction rate was quantified by absorbance variation at 340 nm using a spectrophotometer at 37° C. Reactions with no ketoisophorone added were performed to quantify the non-specific reaction rate. The net reaction rate as shown in FIG. 13 was calculated by subtracting the non-specific reaction rate from the total reaction rate. For generating NMNH, a microcentrifuge tube (2 mL) containing 35 mM Tris-HCl (pH 8.0), 4 mM NMN^+, 1 M NaCl and 140 mM glucose, was incubated for ˜3 hr at 30° C. with purified Bs GDH I195R. An aliquot of this reaction system was taken to measure the accumulation of NMNH by reading absorbance at 340 nm. The proteins in the reaction were removed by filtering the mixture with centrifugal filter units (Amicon Ultra-0.5 Centrifugal Filter Units, Millipore, USA). The solvent was evaporated, and the residue was collected to give NMNH as a yellowish oil.

B1: XenA: enoate reductase XenA from Pseudomonas putida, wild type (protein, listed as Pseudomonas putida)
chain: MSALFEPYTLKDVTLRNRIAIPPMCQYMAEDGLINDWHQVHYASMARGGAGLLVVEATAVAPEGRITPGCAGIWSDAHAQAFVPVVQAIKAAGSVPGIQIAHAGRKASANRPWEGDDHIGADDARGWETIAPSAIAFGAHLPNVPRAMTLDDIARVKQDFVDAARRARDAGFEWIELHFAHGYLGQSFFSEHSNKRTDAYGGSFDNRSRFLLETLAAVREVWPENLPLTARFGVLEYDGRDEQTLEESIELARRFKAGGLDLLSVSVGFTIPETNIPWGPAFMGPIAERVRREAKLPVTSAWGFGTPQLAEAALQANQLDLVSVGRAHLADPHWAYFAAKELGVEKASWTLPAPYAHWLERYR
- activity with NMNH as reducing cofactor: comparable activity to the natural cofactors NADH and NADPH; also recorded: comparable activity to the natural cofactors NADPH and NADH
